# Test results from patent US20220144916A1 (University of Texas, published 2022).
# B1: HCMV viral Fcγ receptor gp34 (residues 24-182), soluble, strep and FLAG tags (receptor)
# chain: SSSNAVEPTKKPLKLANYRATCEDRTRTLVTRLNTSHHSVVWQRYDIYSRYMRRMPPLCIITDAYKETTRQGGAAFACTRQNLTLYNLTVKDTGVYLLQDQYTGDVEAFYLIIHPRSFCRALETRRCFYPGPGRVVVTDSQEADRAIISDLKRQWSGLS
# notes: range 24-182
# Biological target: human IgG1 coated on ELISA plates (human, UniProt P01857-1 1-330 = IgG part)
# Test: competition ELISA, human IgG1 coat; blocked ligand FLAG-tagged FcγRIIIA, anti-FLAG-HRP [panel B]
binder,measurement,value
B1,IC50 (read off the curve),~30 nM
